Measured values published in patent publication US20250109204A1 (LAVA THERAPEUTICS N V, published 2025).
Numbering of substitutions follows the chain as printed. Numbers in names are those of the source.

Key:
[1] = biological target: Epidermal growth factor receptor (EGFR) on tumor cell lines A-431, HCT-116 and HT-29 (human) (UniProt P00533); test: cell-based or functional assay
[2] = biological target: Human Vγ9Vδ2 T cell receptor on primary Vγ9Vδ2 T cells (human) (UniProt Q99603); test: cell-based or functional assay
[3] = biological target: T1, Epidermal growth factor receptor (EGFR) on tumor cell lines A-431, HCT-116 and HT-29 (human, UniProt P00533 25-1210); test: cell-based ELISA on EGFR-expressing A-431, HCT-116 and HT-29 cells, anti-IgG1-HRP, OD 450 nm; one EC50 given for all three cell lines A-431, HCT-116 and HT-29; 37° C
T1 construct: whole, on cells; also called EGFR positive tumor cells
Experimental: (§1) To this end, tumor cells were first seeded at different concentrations on day-1 to reach a concentration of approximately 50000 cells/well on day 0. […] Bound antibodies were then labelled in a secondary incubation step with anti-IgG1-HRP for one hour at 37° C. The secondary antibody binding was then resolved by the addition of 3,3′,5,5′-Tetramethylbenzidine and the colorimetric change induced by the HRP, followed by the addition of H2SO4 to stop the reaction. The optical density (OD) was then measured in a UV spectrometer at a wavelength of 450 nm.

[4] = biological target: Human Vγ9Vδ2 T cell receptor on primary Vγ9Vδ2 T cells (human) (UniProt Q99603); test: flow cytometry on expanded primary Vγ9Vδ2 T cells of donor D339 (panel 'Binding to D339 P2'), anti-IgG1 secondary, MFI (geometric mean); EC50 table beside the curve gives no unit, x axis is in nM
[5] = biological target: T1, Epidermal growth factor receptor (EGFR) …; test: cell-based ELISA on A-431 cells, anti-IgG1-HRP, signal at 450 nm
Experimental: as §1

[6] = biological target: Human Vγ9Vδ2 T cell receptor on primary Vγ9Vδ2 T cells (human) (UniProt Q99603); test: flow cytometry on expanded primary human Vγ9Vδ2 T cells (two donors), labelled anti-IgG1 secondary antibody
[7] = biological target: T1, Epidermal growth factor receptor (EGFR) …; test: cell-based ELISA on HCT-116 cells, anti-IgG1-HRP, signal at 450 nm; EC50 table gives no unit, x axis is in nM
Experimental: as §1

[8] = biological target: T1, Epidermal growth factor receptor (EGFR) …; test: cell-based ELISA on A-431 cells, anti-IgG1-HRP, signal at 450 nm; EC50 table gives no unit, x axis is in nM; the table is identical to that of Fig. 10C and does not fit the drawn curve
Experimental: as §1

[9] = biological target: Human Vγ9Vδ2 T cell receptor on primary Vγ9Vδ2 T cells (human) (UniProt Q99603); test: flow cytometry on expanded primary Vγ9Vδ2 T cells of donor D336 (panel 'Binding to D336 P3'), anti-IgG1 secondary, MFI (geometric mean); EC50 table beside the curve gives no unit, x axis is in nM
[10] = biological target: T1, Epidermal growth factor receptor (EGFR) …; test: cell-based ELISA on HT29 cells, anti-IgG1-HRP, signal at 450 nm; EC50 table gives no unit, x axis is in nM
Experimental: as §1

[11] = biological target: Recombinant human Vγ9Vδ2-Fc fusion protein (human) (UniProt Q99603); test: BLI (Octet RED96), Vγ9Vδ2-Fc captured on anti-human Fc biosensors, VHH as analyte, 1:1 global fit, mean of at least three measurements +/- SD
[12] = biological target: T1, Epidermal growth factor receptor (EGFR) …; test: cell-based or functional assay
[13] = biological target: Human Vγ9Vδ2 T cell receptor on primary Vγ9Vδ2 T cells (human), Q99603; test: cell-based or functional assay

What does the source list for “bispecific VHH 7D12-5C8 (non-humanized) (bispecific antibody)”?
EC50 cytotoxicity (pM) [1]: 9 pM; EC50 degranulation (pM) [2]: 10 pM

B1: 7D12var8-5C8var1 (Y105F)-Fc (bispecific antibody, V domains shown)
V domain 1: EVQLVESGGGSVQPGGSLRLSCAASGRTSRSYGMGWFRQAPGKEREFVSGISWRGDSTGYADSVKGRFTISRDNAKNTVDLQMNSLRAEDTAVYYCAAAAGSAWYGTLYEYDYWGQGTLVTVSS
V domain 2: EVQLLESGGGSVQPGGSLRLSCAASGRPFSNYAMSWFRQAPGKEREFVSAISWSGGSTSYADSVKGRFTISRDNSKNTLYLQMNSLRAEDTAVYYCAAQFSGADFGFGRLGIRGYEYDYWGQGTQVTVSS
notes: Heterodimer of two VHH-Fc chains: 7D12var8-Fc (hole) and 5C8var1(Y105F)-Fc (knob); Human IgG1 Fc with L234F and L235E; In both entries the last residue X3 is K or absent; copies: 1 + 1
B1 was tested. Which EC50 [3] did it give?
Its EC50 is roughly 7 nM.

What about the EC50 [4] of the same molecule?
Its EC50 is 3.99 nM.

What about the “EC50 (read off the curve)” value [5] of the same molecule?
The value was roughly 1 nM.

What about the EC50 [6] of the same molecule?
The EC50 was 3 nM.

And the EC50 for Vγ9Vδ2 T cell degranulation (CD107a) [2]?
The EC50 for Vγ9Vδ2 T cell degranulation (CD107a) was 40 to 90 pM.

What about the EC50 [7] of the same molecule?
The EC50 was 7.29 nM.

And the EC50 [8]?
Its EC50 is 7.29 nM.

And the EC50 [9]?
The EC50 was 3.11 nM.

And the EC50 [10]?
Its EC50 is 6.45 nM.

B2: VHH 5C8var1-Y105S (VHH)
VHH: B1 V domain 2 with F105S
How did the Kd [11] turn out when B2 was run?
The Kd was 1.59 nM.

B3: VHH 5C8var1-Y105F (VHH)
VHH: B1 V domain 2
For B3, which Kd [11] is on record?
The Kd was 0.78 nM.

B4: VHH 5C8var1 (VHH)
VHH: B1 V domain 2 with F105Y
modifications: Y105 partly sulfated (shown for 5C8 and for 1D12var5-5C8var1; 5C8var1 gave two HP-SEC peaks)
With B4 as the molecule, how does the Kd [11] read?
The Kd was 0.81 nM.

B5: bispecific VHH 7D12var8-5C8var1-Y105F (bispecific antibody)
chain: EVQLVESGGGSVQPGGSLRLSCAASGRTSRSYGMGWFRQAPGKEREFVSGISWRGDSTGYADSVKGRFTISRDNAKNTVDLQMNSLRAEDTAVYYCAAAAGSAWYGTLYEYDYWGQGTLVTVSSGGGGSEVQLLESGGGSVQPGGSLRLSCAASGRPFSNYAMSWFRQAPGKEREFVSAISWSGGSTSYADSVKGRFTISRDNSKNTLYLQMNSLRAEDTAVYYCAAQFSGADFGFGRLGIRGYEYDYWGQGTQVTVSS
Which “EC50 cytotoxicity (pM)” value [12] does the source give for B5 here?
The value was 2.5 pM.

And the EC50 degranulation (pM) [13]?
Its EC50 degranulation (pM) is 11 pM.
